This note sets out measurements from paper PMC6050966, “Structure-Function Analysis of the Curli Accessory Protein CsgE Defines Surfaces Essential for Coordinating Amyloid Fiber Formation” (mBio, 2018).

What is called stoichiometry N is a count of units in the complex or per binding partner.

In series [1] the target is CsgE W48A (E. coli MC4100). Kind of series: native gel or EMSA; native PAGE of purified CsgE (monomer peak) incubated at 4°C or 25°C for various times.
For series [2], the target named is CsgE F79A (E. coli MC4100). Described as above.
The target of series [3] is 6x-His-tagged CsgA lacking the 20-residue N-terminal signal sequence (E. coli) (UniProt P28307).
6x-His-tagged CsgA lacking the 20-residue N-terminal signal sequence (E. coli), sequence (P28307 21-151): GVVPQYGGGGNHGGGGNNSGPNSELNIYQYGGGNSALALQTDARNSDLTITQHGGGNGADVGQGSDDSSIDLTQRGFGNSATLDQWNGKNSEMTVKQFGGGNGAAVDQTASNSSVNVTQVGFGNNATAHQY
Series [4] addresses P0AE95. Kind of series: SEC-MALS; Superdex 200 Increase 10/300 GL, 0.3 ml/min; protein at 2 mg/ml in 50 mM KHPO4 pH 7.3 with and without 150 mM NaCl. In general terms: In gel filtration, larger molecules generally elute earlier.
Series [5] addresses T1, 6x-His-tagged CsgA lacking the 20-residue N-terminal signal sequence (E. coli, UniProt P28307 21-151).
T1 construct: Freshly purified, unfolded monomer; also called unlabeled CsgA; monomeric CsgA
In words: NMR titration; 1H-15N HSQC chemical shift perturbation at one ratio: 15N-labeled WT CsgE (80 µM, 0.4 M arginine) with or without unlabeled CsgA (80 µM). The note with it: both partners purified.

The target in series [6] is P0AE95. In words: SEC; Superdex 200 10/300, 50 mM potassium phosphate, 150 mM NaCl, pH 7.4; purified CsgE (20 µM) incubated at 25°C for 5 h to 28 h; monomer to nonamer.
The target in series [7] is P0AE95. In words: SEC; Superdex 200 10/300, 50 mM potassium phosphate, 150 mM NaCl, pH 7.4; purified CsgE (20 µM) incubated at 37°C; monomer to nonamer and larger oligomers.
For series [8], the target named is T2, WT CsgE (6x-His-tagged, E. coli MC4100) (E. coli MC4100), P0AE95.
T2 chain: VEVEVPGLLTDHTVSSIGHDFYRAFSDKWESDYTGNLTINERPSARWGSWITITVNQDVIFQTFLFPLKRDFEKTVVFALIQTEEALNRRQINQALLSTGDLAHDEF
In words: native gel or EMSA; native PAGE of purified CsgE (monomer peak) incubated at 4°C or 25°C for various times. The note with it: remark: other sources report otherwise. For orientation: Mobility shift assays separate free from complexed probe on a gel.

Series [9] concerns the target T2, WT CsgE (6x-His-tagged, E. coli MC4100) …. In words: SEC-MALS; Superdex 200 Increase 10/300 GL, 0.3 ml/min; protein at 2 mg/ml in 50 mM KHPO4 pH 7.3 with and without 150 mM NaCl. The settings on record: remark: other sources report otherwise.
For series [10] the target is unchanged. Kind of series: SEC; Superdex 200 10/300, 50 mM potassium phosphate, 150 mM NaCl, pH 7.4; purified CsgE (20 µM) incubated at 25°C for 5 h to 28 h; monomer to nonamer. The note with it: remark: other sources report otherwise.
Series [11] shares this target. In words: SEC; Superdex 200 10/300, 50 mM potassium phosphate, 150 mM NaCl, pH 7.4; purified CsgE (20 µM) incubated at 37°C; monomer to nonamer and larger oligomers. The settings on record: remark: other sources report otherwise.
The target is the same in series [12]. In words: SEC; Superdex 200 10/300, 50 mM potassium phosphate, 150 mM NaCl, pH 7.4; purified CsgE (20 µM) immediately after purification and kept at 4°C for up to 20 days; monomer to nonamer. The note with it: remark: other sources report otherwise.

A value given as a limit tells only on which side of the number the result lay.

T1 sequence (P28307 21-151): as the sequence (P28307 21-151) above

CsgE W48A (natural protein): the stoichiometry N in series [1] turned out to be 9.
Regarding CsgE F79A (natural protein), the stoichiometry N in series [2] was 9.
For CsgE R47A (natural protein), the Thioflavin T fluorescence of CsgA polymerization (25°C, 48 h): T50 of CsgA with CsgE R47A relative to WT CsgE (% decrease of T50 relative to WT CsgE) in [3] is more than 50.

B1: WT CsgE (6x-His-tagged, E. coli MC4100) (natural protein, UniProt P0AE95 23-129, looked up)
chain: VEVEVPGLLTDHTVSSIGHDFYRAFSDKWESDYTGNLTINERPSARWGSWITITVNQDVIFQTFLFPLKRDFEKTVVFALIQTEEALNRRQINQALLSTGDLAHDEF
notes: CsgE, periplasmic curli accessory protein of E. coli MC4100; add 21 for the precursor numbering of P0AE95; 15N-labeled (M9 minimal medium with [15N]ammonium sulfate) for NMR; Monomer peak of the S-100 column was used for SEC and native PAGE; also called wild-type CsgE; recombinant WT CsgE
B1: the “high-molecular-weight aggregate, percent of the loaded mass” value in [4] was “a large, high-molecular-weight aggregate representing 32% of the loaded mass”. Moreover, in series [5], the binding result is given as “binds”. Besides, in [6], the “nonamer peak area as percent of monomer peak area, after 5 h at 25°C” value is reported as “the nonamer peak area was approximately 20% of the monomer peak area” and the “nonamer peak area as percent of monomer peak area, after 28 h at 25°C” value is listed as “the nonamer peak area was approximately 40% of the monomer peak area”. In addition, the “loss of monomer peak area within 1 h at 37°C” value in series [7] is “the monomeric peak loses >65% of its area within 1 h of incubation”.

B2: WT CsgE (6x-His-tagged, E. coli MC4100), P0AE95 23-129 (natural protein)
chain: VEVEVPGLLTDHTVSSIGHDFYRAFSDKWESDYTGNLTINERPSARWGSWITITVNQDVIFQTFLFPLKRDFEKTVVFALIQTEEALNRRQINQALLSTGDLAHDEF
As to B2, the stoichiometry N in series [8], in series [10], in [11] and in series [12] was 9 throughout. The molecule further had a small oligomer, percent of the mass in series [9] of 2%. Further, in [12], the monomer, percent of peak area was more than 90%.
